Experiment [1] has as its target T1, recombinant human IL-1β (human, UniProt P01584 117-269).
T1 construct: mature; also called Rec Human IL-1β; recombinant human IL-1beta
In words: Biacore competition: ACZ885 immobilized on the chip, recombinant human IL-1β (1 nM) injected with increasing soluble IL-1 receptor type I (0-12 nM); % binding of IL-1β to ACZ885; mean ± SEM, n=4.
Description: Half-maximum values (IC₅₀) were determined graphically using the Origin 6.0 software The mean±SEM is given (n=4).

Experiment [2] has as its target T2, IL-1β derived from rhesus monkeys (rhesus monkey, UniProt P48090 117-269).
T2 construct: also called rhesus IL-1β
In words: not named.

Experiment [3] has as its target T3, Rec Cynomolgus IL-1β (cynomolgus, UniProt P79182 117-268).
T3 construct: also called Rec Cynomolgus IL-β; cynomolgous IL-1beta
In words: Biacore, ACZ885 immobilized.

Experiment [4] addresses T4, Rec Human IL-1α (human, UniProt P01583 113-271).
T4 construct: also called human IL-1alpha
T4 sequence (looked up): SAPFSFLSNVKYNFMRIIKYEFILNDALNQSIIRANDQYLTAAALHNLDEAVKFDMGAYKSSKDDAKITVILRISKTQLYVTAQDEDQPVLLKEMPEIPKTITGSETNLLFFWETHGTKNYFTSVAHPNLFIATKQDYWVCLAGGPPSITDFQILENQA
In words: Biacore, ACZ885 immobilized.

Experiment [5] deals with naturally produced IL-1β in conditioned medium from peripheral blood mononuclear cells (human, UniProt P01584 117-269, limits assumed). In words: cell-based or functional assay.

Values joined by “and” are separate entries in the source; they are usually repeats but may differ in a detail not shown here. Equal entries are not always repeated.

B1: recombinant human soluble IL-1 type I receptor (receptor, UniProt P14778 18-332, looked up)
chain: LEADKCKEREEKIILVSSANEIDVRPCPLNPNEHKGTITWYKDDSKTPVSTEQASRIHQHKEKLWFVPAKVEDSGHYYCVVRNSSYCLRIKISAKFVENEPNLCYNAQAIFKQKLPVAGDGGLVCPYMEFFKNENNELPKLQWYKDCKPLLLDNIHFSGVKDRLIVMNVAEKHRGNYTCHASYTYLGKQYPITRVIEFITLEENKPTRPVIVSPANETMEVDLGSQIQLICNVTGQLSDIAYWKWNGSVIDEDDPVLGEDYYSVENPANKRRSTLITVLNISEIESRFYKHPFTCFAKNTHGIDAAYIQLIYPVT
notes: Called soluble; also called soluble human IL-1 type I receptor; recombinant human soluble receptor I
Take B1: the IC50 in experiment [1] came to 0.68 nM.

B2: ACZ 885 antibody (antibody, human IgG1, V domains shown)
VH: QVQLVESGGGVVQPGRSLRLSCAASGFTFSVYGMNWVRQAPGKGLEWVAIIWYDGDNQYYADSVKGRFTISRDNSKNTLYLQMNGLRAEDTAVYYCARDLRTGPFDYWGQGTLVTVSS
VL: EIVLTQSPDFQSVTPKEKVTITCRASQSIGSSLHWYQQKPDQSPKLLIKYASQSFSGVPSRFSGSGSGTDFTLTINSLEAEDAAAYYCHQSSSLPFTFGPGTKVDIK
notes: also called NVP-ACZ885
Turning to B2, the results for the binding result in experiment [2], in experiment [3] and in experiment [4] were “no binding”, “no binding (tested: 8 nM)” and “no binding (tested: 8 nM)”, respectively. In addition, the “IC50, inhibition of IL-1β-induced IL-6 secretion from human dermal fibroblasts, cond. medium (NVP-ACZ885 Batch1)” value in experiment [5] was 54 pM and 9.1 ng/ml. Besides, the “IC50, inhibition of IL-1β-induced IL-6 secretion from human dermal fibroblasts, cond. medium (NVP-ACZ885 Batch2)” value in experiment [5] worked out at 7.4 ng/mL.

Source of the values: patent publication US20040063913A1 (Novartis, published 2004).
